This note sets out measurements from PMC2270844, “Functional role of the additional domains in inulosucrase (IslA) from Leuconostoc citreum CW28” (BMC Biochemistry, 2008).

Substrate in this series: OC[C@H]1O[C@@](CO)(O[C@H]2O[C@H](CO)[C@@H](O)[C@H](O)[C@H]2O)[C@@H](O)[C@@H]1O
Nature of the series: initial sucrose consumption rate, reducing sugar (DNS) assay, Michaelis-Menten fit. The class given is biochemical, Leuconostoc citreum. Particulars: pH 6.5 phosphate 50 mM, 30°C, 1 mM CaCl2, total Km (hydrolysis plus transglycosylation). An excerpt:
initial sucrose consumption rate, reducing sugar (DNS) assay, Michaelis-Menten fit on IslA2

B1: IslA2 (Leuconostoc citreum) (protein)
chain: DVNQPLLAQENFSGNKTEPVPDKSNKNESVKDSKVATSDELAKDSKVATSDELAKDSKVATSDELAKDSKVATSDELVKDSKVATSDELAKDSKVATSDELAKDSKVATSDELAKDSKVATSDELAKDSKVATSDELAKDSKAPTNDVSVRAEKKSSLIDSPELNVKMSEMTSVPNLISDENSKNLVNSNELINGLSKRSLEIAHQAGIDVSRLNDIQKAALNKIKLVNEDGNKYVLDNTGSDYTKNTIIDKNNPDDTTKTTHITFANLDDAIKLAQKPDPKTTIPVFNASQINNLPASIFKDAQTNKVEKMDVWDSWALQDSKTGEVYNYHGKQVVFALMGAPLVQGDTHIYMLYNNYNNAKLDGWVNAGPVFGYNAKPESQEWSGSAVVNSDDSIQLFYTRVADDWKQALATVNIKITNSENSLGIQSLQNDHILFEGDGYFYSRKDQLKPQADMFTLRDPKLIELDDGERYLTFEANTGIYDEASDQQTVNLNNYGGGLTYDVARMLGVVNNSNRALYSSTANGAIGLLKLKGDYFNPILDRLYKPLITAVGVTDEIERANIVPFNGKYYLFTDSRFNRSAADNSPMSMAPDGAMMMGFVSDSLFGDYKPLNGNGIVLVTNNSFTSRTNTYSWYTVPVKGRPDLMLVTSYMTNRGLASGTDQYSTFAPSFLLKIDGDQTHVLNTVTEQGDWVWGDDDHSIVELLALNTEDAYLTNNQKNINYSPDWSNIDGYGYPIVTNIKDVDLTFYISGILSPDSLFKNAPGRHQGARIIGSTSQYNTEKVSAIKEYTDDLNTIWYLVNLAGNNFWIKGSSLVTVPMTDSTFRNAYIVKDSDMYLDAPQGETNAKYYQSSNSYNDAYVIVGGEYKDAHGITWNLIKLNDKILWINKNSLAISFSRDLN
notes: C-terminal truncation, last 551 residues deleted; variable region, catalytic domain and transition region kept; 102 kDa plus 16 kDa N-terminal thioredoxin fusion, His tag; E. coli TOP10, pBAD/Thio TOPO, Ni-NTA
What is called Km is the concentration of substrate that gives half-maximal velocity. What is called kcat is the number of substrate molecules converted per active site and unit of time at saturation. The term kcat/Km denotes the second-order rate constant that governs catalysis at low substrate concentration. Consider B1, for which the Km amounted to 24 mM, the kcat turned out to be 28.2 s⁻¹ and the kcat/Km is 1170 M⁻¹ s⁻¹.
